This note sets out measurements from the supplement of paper PMC7125110.

To fix the notation:
B1: glmS ribozyme (parent)
chain: AUAAAAGCGCCAGAACUACAGAAAUGUAGUUGACGAGGAGGAGGUUUAUCGAAUUUUCGGCGGAUGCCUCCAAA

Details in all cases: with glucosamine-6-phosphate
The variants in series [1] derive from B1. Nature of the series: kcat; higher = faster cleavage; RNA array. In a few lines:
(§1)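 Barcoded ribozyme variants were transcribed in situ on sequenced MiSeq chips by E. coli RNA polymerase. At 37 °C, a hybridised Cy3 probe tracked them while glucosamine-6-phosphate (40 μM to 10 mM) in HEPES/KCl/Mg(OAc)2 buffer flowed in and tiles were imaged over ~14 h. Per-tile medians of signals normalised to baseline and to non-cleaving reference variants were fit to one- or two-exponential decays, giving kobs. kcat and KM came from weighted Michaelis–Menten fits across concentrations.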

In series [2] the parent is B1. Briefly: KM; higher = weaker cofactor use; RNA array. In a few lines: as §1
The variants in series [3] derive from B1. Nature of the series: self-cleavage kobs at 160 uM GlcN6P; higher = faster cleavage; RNA array. In a few lines:
as §1

Variants of B1 are the subject of series [4]. Nature of the series: self-cleavage kobs at 10000 uM GlcN6P; higher = faster cleavage; RNA array. In a few lines: as §1
In series [5] the parent is B1. Nature of the series: self-cleavage kobs at 640 uM GlcN6P; higher = faster cleavage; RNA array. In a few lines: as §1
Variants of B1 are the subject of series [6]. Briefly: self-cleavage kobs at 2500 uM GlcN6P; higher = faster cleavage; RNA array. In a few lines:
as §1

Series [7] covers variants of B1. Nature of the series: self-cleavage kobs at 40 uM GlcN6P; higher = faster cleavage; RNA array. In a few lines:
as §1

± gives the standard error. For some assays here: Fewer inactive variants are shown than the library holds.

Turning to G44U U55C, the kcat with glucosamine-6-phosphate [1] was found to be 9.04e-05 ± 3.7e-06 s⁻¹. The KM with glucosamine-6-phosphate [2] is 8390 ± 750 µM. Also, the “self-cleavage kobs at 160 uM GlcN6P” value in the series with glucosamine-6-phosphate [3] is less than 1e-05 s⁻¹. Besides, the “self-cleavage kobs at 10000 uM GlcN6P” value with glucosamine-6-phosphate [4] amounted to 4.92e-05 ± 1.3e-05 s⁻¹.
Take C16U G32U: the kcat with glucosamine-6-phosphate [1] was 0.0024 ± 0.00062 s⁻¹. Also, the KM with glucosamine-6-phosphate [2] was found to be 8100 ± 2900 µM. In the series with glucosamine-6-phosphate [3], the “self-cleavage kobs at 160 uM GlcN6P” value was determined as 4.18e-05 ± 1e-05 s⁻¹. For the same variant, in the series with glucosamine-6-phosphate [5], the “self-cleavage kobs at 640 uM GlcN6P” value amounted to 0.000214 ± 3.2e-05 s⁻¹. Moreover, in the series with glucosamine-6-phosphate [6], the “self-cleavage kobs at 2500 uM GlcN6P” value was determined as 0.000519 ± 5.8e-05 s⁻¹. The “self-cleavage kobs at 10000 uM GlcN6P” value with glucosamine-6-phosphate [4] came out at 0.00137 ± 0.00015 s⁻¹.
As to A6G G32A, the kcat with glucosamine-6-phosphate [1] was less than 1e-05 s⁻¹. The “self-cleavage kobs at 40 uM GlcN6P” value with glucosamine-6-phosphate [7] was less than 1e-05 s⁻¹.
C16A G37A: in the series with glucosamine-6-phosphate [1], the kcat stood at 7.68e-05 ± 2.6e-06 s⁻¹. Further, the KM with glucosamine-6-phosphate [2] worked out at 999 ± 160 µM. For the same variant, in the series with glucosamine-6-phosphate [6], the “self-cleavage kobs at 2500 uM GlcN6P” value worked out at 5.79e-05 ± 1.2e-05 s⁻¹. In addition, the “self-cleavage kobs at 10000 uM GlcN6P” value in the series with glucosamine-6-phosphate [4] was found to be 6.89e-05 ± 9.4e-06 s⁻¹.
Take U65A U69A: in the series with glucosamine-6-phosphate [1], the kcat was determined as 7.76e-05 ± 5.6e-06 s⁻¹. In addition, the KM in the series with glucosamine-6-phosphate [2] came to 134 ± 50 µM. Besides, the “self-cleavage kobs at 160 uM GlcN6P” value with glucosamine-6-phosphate [3] is 4.06e-05 ± 1.5e-05 s⁻¹. For the same variant, the “self-cleavage kobs at 640 uM GlcN6P” value in the series with glucosamine-6-phosphate [5] is 6.97e-05 ± 1.3e-05 s⁻¹. For the same variant, the “self-cleavage kobs at 2500 uM GlcN6P” value with glucosamine-6-phosphate [6] was found to be 7.08e-05 ± 1.2e-05 s⁻¹.
On to G7A C68U, for which the kcat with glucosamine-6-phosphate [1] amounted to 2.24e-05 ± 5.5e-06 s⁻¹.
Regarding A53C C67G, in the series with glucosamine-6-phosphate [1], the kcat was 3.47e-05 ± 4.1e-06 s⁻¹. Besides, the “self-cleavage kobs at 40 uM GlcN6P” value with glucosamine-6-phosphate [7] is less than 1e-05 s⁻¹. Moreover, in the series with glucosamine-6-phosphate [6], the “self-cleavage kobs at 2500 uM GlcN6P” value turned out to be 3.42e-05 ± 9e-06 s⁻¹. Moreover, the “self-cleavage kobs at 10000 uM GlcN6P” value with glucosamine-6-phosphate [4] stood at 3.14e-05 ± 6.5e-06 s⁻¹.
Take G29U U45G: the kcat with glucosamine-6-phosphate [1] came to 0.000648 ± 0.00013 s⁻¹. Moreover, the KM with glucosamine-6-phosphate [2] was 1660 ± 680 µM. Further, in the series with glucosamine-6-phosphate [3], the “self-cleavage kobs at 160 uM GlcN6P” value is 3.73e-05 ± 1.2e-05 s⁻¹. In addition, the “self-cleavage kobs at 640 uM GlcN6P” value in the series with glucosamine-6-phosphate [5] amounted to 0.000217 ± 2.8e-05 s⁻¹. Besides, in the series with glucosamine-6-phosphate [6], the “self-cleavage kobs at 2500 uM GlcN6P” value is 0.00064 ± 0.00013 s⁻¹. Moreover, the “self-cleavage kobs at 10000 uM GlcN6P” value in the series with glucosamine-6-phosphate [4] is 0.000522 ± 5.5e-05 s⁻¹.
With A14C A48G, the turnover number (kcat) with glucosamine-6-phosphate [1] is less than 1e-05 s⁻¹. In addition, the KM in the series with glucosamine-6-phosphate [2] came to 1040 ± 200 µM. The “self-cleavage kobs at 640 uM GlcN6P” value with glucosamine-6-phosphate [5] is less than 1e-05 s⁻¹.
Take A6U G38C: the kcat with glucosamine-6-phosphate [1] is less than 1e-05 s⁻¹. The KM with glucosamine-6-phosphate [2] came to 3580 ± 1000 µM. Besides, the “self-cleavage kobs at 40 uM GlcN6P” value with glucosamine-6-phosphate [7] is less than 1e-05 s⁻¹. Moreover, in the series with glucosamine-6-phosphate [3], the “self-cleavage kobs at 160 uM GlcN6P” value was less than 1e-05 s⁻¹. Also, the “self-cleavage kobs at 640 uM GlcN6P” value with glucosamine-6-phosphate [5] is less than 1e-05 s⁻¹.
Turning to C16A U47A, the kcat with glucosamine-6-phosphate [1] is 0.000851 ± 0.00014 s⁻¹. Also, the KM with glucosamine-6-phosphate [2] was 1150 ± 410 µM. Besides, in the series with glucosamine-6-phosphate [3], the “self-cleavage kobs at 160 uM GlcN6P” value is 9.46e-05 ± 2.7e-05 s⁻¹. In addition, the “self-cleavage kobs at 640 uM GlcN6P” value with glucosamine-6-phosphate [5] was 0.000544 ± 0.00013 s⁻¹. Moreover, the “self-cleavage kobs at 2500 uM GlcN6P” value with glucosamine-6-phosphate [6] was found to be 0.000553 ± 0.00011 s⁻¹. Also, in the series with glucosamine-6-phosphate [4], the “self-cleavage kobs at 10000 uM GlcN6P” value was found to be 0.000758 ± 0.00011 s⁻¹.
G37A U54C: the kcat with glucosamine-6-phosphate [1] was found to be 0.00259 ± 0.00054 s⁻¹. In addition, the KM with glucosamine-6-phosphate [2] stood at 3190 ± 910 µM. The “self-cleavage kobs at 40 uM GlcN6P” value with glucosamine-6-phosphate [7] amounted to 4.82e-05 ± 1.6e-05 s⁻¹. For the same variant, in the series with glucosamine-6-phosphate [3], the “self-cleavage kobs at 160 uM GlcN6P” value amounted to 0.000124 ± 2.7e-05 s⁻¹. Besides, in the series with glucosamine-6-phosphate [5], the “self-cleavage kobs at 640 uM GlcN6P” value was 0.000375 ± 8.4e-05 s⁻¹. Also, the “self-cleavage kobs at 2500 uM GlcN6P” value with glucosamine-6-phosphate [6] stood at 0.00127 ± 0.00026 s⁻¹. Besides, in the series with glucosamine-6-phosphate [4], the “self-cleavage kobs at 10000 uM GlcN6P” value came to 0.00192 ± 0.00042 s⁻¹.
Regarding C50U U57C G63A, the kcat with glucosamine-6-phosphate [1] was determined as 2.57e-05 ± 3.6e-06 s⁻¹.
Regarding C58U C71G, in the series with glucosamine-6-phosphate [1], the kcat is less than 1e-05 s⁻¹.
As for U49C C61U, in the series with glucosamine-6-phosphate [1], the kcat turned out to be 1.01e-05 ± 1.5e-06 s⁻¹. For the same variant, in the series with glucosamine-6-phosphate [4], the “self-cleavage kobs at 10000 uM GlcN6P” value is less than 1e-05 s⁻¹.
On to A15C G37A, for which the kcat in the series with glucosamine-6-phosphate [1] came to 0.000686 ± 9.5e-05 s⁻¹. In the series with glucosamine-6-phosphate [2], the KM is 4650 ± 1200 µM. The “self-cleavage kobs at 640 uM GlcN6P” value with glucosamine-6-phosphate [5] worked out at 9.31e-05 ± 1.5e-05 s⁻¹. Moreover, the “self-cleavage kobs at 2500 uM GlcN6P” value with glucosamine-6-phosphate [6] is 0.000226 ± 3.7e-05 s⁻¹. Further, the “self-cleavage kobs at 10000 uM GlcN6P” value in the series with glucosamine-6-phosphate [4] turned out to be 0.000471 ± 4.5e-05 s⁻¹.
For the variant A42C U56C, the turnover number (kcat) in the series with glucosamine-6-phosphate [1] was less than 1e-05 s⁻¹. Also, in the series with glucosamine-6-phosphate [7], the “self-cleavage kobs at 40 uM GlcN6P” value was less than 1e-05 s⁻¹.
With G41U U54C, the kcat with glucosamine-6-phosphate [1] stood at 0.00115 ± 0.00032 s⁻¹. In addition, the “self-cleavage kobs at 40 uM GlcN6P” value with glucosamine-6-phosphate [7] stood at 0.000109 ± 1.9e-05 s⁻¹. Further, in the series with glucosamine-6-phosphate [3], the “self-cleavage kobs at 160 uM GlcN6P” value is 0.000197 ± 4.5e-05 s⁻¹. Moreover, the “self-cleavage kobs at 640 uM GlcN6P” value in the series with glucosamine-6-phosphate [5] worked out at 0.000389 ± 0.0001 s⁻¹. In addition, the “self-cleavage kobs at 2500 uM GlcN6P” value in the series with glucosamine-6-phosphate [6] was found to be 0.00118 ± 0.00025 s⁻¹. In addition, the “self-cleavage kobs at 10000 uM GlcN6P” value in the series with glucosamine-6-phosphate [4] was 0.00117 ± 0.00018 s⁻¹.
As for G62C C70A, in the series with glucosamine-6-phosphate [1], the kcat was found to be 1.23e-05 ± 3.2e-06 s⁻¹.
